According to the domain aggregation screens of Martell et al. (2025):

Experiment: soluble fraction after stress (log2 fold change); higher = more stays soluble; pooled small domains, quantitative proteomics
Conditions: stress: pH 4
Procedure, shortened: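 Aggregation propensity is read out as the fold change in how much of each domain remains soluble after acid stress. The custom small-domain libraries were pooled, held at pH 4 and analysed with high-throughput quantitative proteomics. On the log2 scale used, higher values mean more of the domain stayed soluble.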

Sequence | soluble fraction (log2)
HMDRTLTYTVSIEESDLRADQFLSRRGFSSHLLTRLRKNMEHLLINGTPSRTNTHLHEGDILTVHIVEE | -0.249
HMGDERDRLLLARGKRIYQELIGSDRENVAAALREFEAVLAVNNRRAIHVMRQRLAELFGVYEEFLNEEFL | -1.29
HMGTITKRTNPSGAVVWRAQIRINKADMPTYSESKTFSKKSLATEWLKRREAEIEANPDLIL | ≥ 0.43
HMVDERMVTYINSLDKGNTPFLNELEKEALANYVPIIRREMQSFLKVLLQIKAPLRILEVGTAVGFSTILM | -0.354
HMNDITVNVEDSKLIVTSNNPEKLPLYIMDIQGHILDKSEITAGTYSFPISDRGTYIVRIGENVYKVI | 0.186
HMANWRVGQTINALVSDRMPSGGLLLTVGRQSFVTTRDIPVQPGARIMLEVQQVEPKLVLRLVSA | -0.236
HMNAMFEKVLAAVMGFIGVSAFAKNADGKSEMTSDQEKRLTDKWGSKFVEEFKNDLLEYEKNGNAAEDAV | -0.332
HMSTVAETVYNEIRDDILYGELQPGVKLKLEALRERYSVGVNTLREVLNRLVASGFVFVEGQKGFRVV | -0.377
HMLSRKEVFTVSQKDIEKNPIGAADKFFDGHVGIHKLLVVDEEDRLRGLFTLSDIERINDEQ | -0.0114
HMGQGEISVPRLEGLSLRETSELLGLFGLRLEAAGSGIALSQNPPAGARVKAGDVIQVDFGEPGN | 0.0931
HMGGLAEIILNAIEIEGGFLPITDKSAPELIQSRLGMSKKAFKEAVGTLYKNRDIAIEPNGLRKI | -0.162
HMETTMVEIKAEFTIRNRLDIPAMMEKAGYKDRGEFLSVLEKITGNYNWDRDVKKGDTFMVPSKLA | -0.335
HMQHRSRALHLQEELVRRYYDQAIAPFMIFWEMKANVTLDQLKELRAVVSPSLNEHPYTKQLDEYIRLAE | -0.275
HMFPELEPDEQLIADLLRKTNNLQINIITVRTGLPINRVTALLFQMEMKGVVRPLAGGTYHLLV | -0.389
HMETALYVEDLDRAVRFYESVMGLNTMSRGVRLVALDAGEGTVLLLFLRGATTSGASFEGGWIPPH | -0.257
HMNKEQIASNIAEARKRSGLNQSELARRLGIRPQSVQQWEKGTATPKLDRLTAIAQVLGVSLESLTG | 0.22
HMATVGENIRRYRKAQNLSAAKLAEKVGLTQGAILHYERGIRTPGISQLEKIAHALNVSPRM | 0.114
HMQKTPFEIMTIYKDQILEMLGKDLTATEISIVLKKKGEKVHPREIRKFQLQHYEEVQDMRKKWRE | -0.632
HMDKIYVYTTRGQVIELPRGSTAIDFAYKIQTDIGNMIIAAIVNDKLVDANYVLHNKDRVKIVTS | -0.725

Sequence | soluble fraction (log2)
HMTKTRTEILEYLKQNWSVTVSASDIKKHLEEKEIKANTTTIYRYLDKLLAEHVIIKYADAGSERAVYQYS | -0.687
HMAVTKVKVITESSNLNIRKGPGTDQPIVGKAAHHEIITLVNKSNDQWWLVRTNDGEEGYSYSRYLEPVT | -0.153
HMYQRLPFSFANRYKMVLESQHPERAPILYYVEPLKSAAIIEVSRVVKNGFTPQAITLDEFDKKLTDAYQR | -0.0881
HMKNVSVKMILSPESLGEIQVDLVFSKGKDLEIMLRPETAEVAKLIQSNSASLREQLSLEHKGPLSLNVS | -0.405
HMEEDDGVDFHERLTELNDEQVYYLINTEPAKVIALALDQLGQKRKINIMNRFNPDMKHSIIMELGKL | -0.666
HMSTLTLTSGTYAVGENIKAGKYTIMGSGSIAISSSGKARVNSNLTADRKDYVLNDDETIKIKGKAQFIPI | 0.0425
HMAESLHVTAAALFEGRAMLGIDGSRRLLRVGETSPEGVKLVSATAREAVIEIDGRRQTLAPGRDT | 0.0589
HMKAQVKSVLDEIPGVGPTRRKALMKHFTSIEEIKQAEFETLLEAEGMNRAAAQSVYDFFHN | -0.491
HMDSAQLARWAATILAQNGRKITPSTMNLFLERVGDDMENIRMELEKLISYTMGSEVVTAEDVKVITTVQ | -0.82
HMDLRIIKTKKAIKTAFLNLLKENKYHNITISAISETALINRKTFYAHYETKDELYADVIEDALRVLSP | -1.04
HMTKEAIAQKLRIARQESGLTQKDVSAKIGRPQQTIASWEVGRSQPDADTLYSLLLLYKVSPNTFFEYD | -0.237
HMRQQAFWALVPEERDVLDETGAPLFRIGPTAWALVIEDRGEVFVVRDEDGRVGYLHEVDGVTR | -1.94
HMEDVPYMIKLPSHHYLTKMVDGSTGWSLVQNSNTVVGSSKEELLKQYPEYEDFIVQEPLNV | -0.336
HMNLPISDREKELLTLLSKGLLYKEIASKLDITIGTVKQHIHNIYHKLHVSNKTEALNLFNK | 0.172
HMARTLSVTVSENYANMRLDSFLFESGLYPSRSKAVKQIESGKVFVNGNEPTKKTIVVANDFIVYEEYAEE | -1.15
HMTLNQEELMGKTEAILFAGGEPVSLDRIAQVLGVRTPVIDSIVSALQEKYNTPTSGIQLMRL | -0.467
HMGELTSILVATKQIEPGETLSSSNTQVKSWISDLIPEGAITNPESVMGRTVSSVIGVGMPVVSLHLR | 0.0354
HMKNYYEVLGVPRDAAAPDIKRAFRKLAKQFHPDHNPGDAKAEERFKLVSQAYDVLGDEEKRKLYDQFGE | 0.254
HMVRQKYKSNFITVGDKSLTIHDWAQRLNLSQYALRNRYKEFGKEWVEKAIKTILETGDNTHIYK | 0.0662
